Publication PMC6396743, “Two membrane-bound transcription factors regulate expression of various type-IV-pili surface structures in Sulfolobus acidocaldarius”

T1: ArnR1 (Sulfolobus acidocaldarius, UniProt Q4J9L2 1-269)
T1 sequence: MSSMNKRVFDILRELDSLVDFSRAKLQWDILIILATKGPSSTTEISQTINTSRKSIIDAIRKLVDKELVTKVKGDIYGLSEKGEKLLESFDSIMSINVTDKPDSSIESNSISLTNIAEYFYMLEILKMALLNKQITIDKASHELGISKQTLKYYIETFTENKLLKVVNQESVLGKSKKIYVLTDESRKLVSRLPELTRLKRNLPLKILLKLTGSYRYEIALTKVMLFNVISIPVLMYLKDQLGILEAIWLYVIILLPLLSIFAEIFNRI

B1: pflaB ArnR box-1 (dsDNA)
DNA 1: ATTGTGATTTTTGGTCGAAG
DNA 2: CTTCGACCAAAAATCACAAT
B2: pflaB41 (dsDNA)
DNA 1: ACGTCGATCAGCAGTCGAAAAATTGTGATTTTTGGTCGAAG
DNA 2: CTTCGACCAAAAATCACAATTTTTCGACTGCTGATCGACGT
B3: pflaB ArnR box-2 (dsDNA)
DNA 1: AACGTCGATCAGCAGTCGAA
DNA 2: TTTCGACTGCTGATCGACGTT
B4: paapF (dsDNA)
DNA 1: GTCTAAAGCCATAAAGATGAGCTTATTTTCATAGATTTAAGT
DNA 2: ACTTAAATCTATGAAAATAAGCTCATCTTTATGGCTTTAGAC
B5: pSaci_2122 (dsDNA)
DNA 1: ATAATTATTACTCAGCGTTTATAACGTTTAACATGTTAAAA
DNA 2: TTTTAACATGTTAAACGTTATAAACGCTGAGTAATAATTAT
B6: pupsX (dsDNA)
DNA 1: TCTCCCATATTACTATTGCCTATCTCGTTAATAGTATTTTC
DNA 2: GAAAATACTATTAACGAGATAGGCAATAGTAATATGGGAGA

Target: T1, ArnR1
Test: MST; MST: 2.5 nM labeled dsDNA, 0.156-18 uM protein, 24 C, 10 min incubation; DNA annealed in 20 mM Tris/HCl pH 8, 200 mM NaCl, 0.05% DDM; protein in 20 mM Tris/HCl
Details: protein: recombinant, tags: N-terminal His10
[1] = label: 5' Alexa Fluor 647, blunt

Binder | binding result [1] | also measured
B1 | no binding | –
B2 | – | Kd [1]: 3.31 µM
B3 | – | binding result (label: 5' Alexa Fluor 647, 5' overhang 1 nt on strand 2 as printed): no binding
B4 | no binding | –
B5 | no binding | –
B6 | – | binding result (label: Alexa Fluor 647, blunt): no binding
